# Laboratory results from PMC2823288 (Nature structural & molecular biology, 2009).
# Biological target: Full-length human DDB1 (human, UniProt Q16531 1-1140)
# Test: crystal structure
# Sequence of Full-length human DDB1 (Q16531 whole entry): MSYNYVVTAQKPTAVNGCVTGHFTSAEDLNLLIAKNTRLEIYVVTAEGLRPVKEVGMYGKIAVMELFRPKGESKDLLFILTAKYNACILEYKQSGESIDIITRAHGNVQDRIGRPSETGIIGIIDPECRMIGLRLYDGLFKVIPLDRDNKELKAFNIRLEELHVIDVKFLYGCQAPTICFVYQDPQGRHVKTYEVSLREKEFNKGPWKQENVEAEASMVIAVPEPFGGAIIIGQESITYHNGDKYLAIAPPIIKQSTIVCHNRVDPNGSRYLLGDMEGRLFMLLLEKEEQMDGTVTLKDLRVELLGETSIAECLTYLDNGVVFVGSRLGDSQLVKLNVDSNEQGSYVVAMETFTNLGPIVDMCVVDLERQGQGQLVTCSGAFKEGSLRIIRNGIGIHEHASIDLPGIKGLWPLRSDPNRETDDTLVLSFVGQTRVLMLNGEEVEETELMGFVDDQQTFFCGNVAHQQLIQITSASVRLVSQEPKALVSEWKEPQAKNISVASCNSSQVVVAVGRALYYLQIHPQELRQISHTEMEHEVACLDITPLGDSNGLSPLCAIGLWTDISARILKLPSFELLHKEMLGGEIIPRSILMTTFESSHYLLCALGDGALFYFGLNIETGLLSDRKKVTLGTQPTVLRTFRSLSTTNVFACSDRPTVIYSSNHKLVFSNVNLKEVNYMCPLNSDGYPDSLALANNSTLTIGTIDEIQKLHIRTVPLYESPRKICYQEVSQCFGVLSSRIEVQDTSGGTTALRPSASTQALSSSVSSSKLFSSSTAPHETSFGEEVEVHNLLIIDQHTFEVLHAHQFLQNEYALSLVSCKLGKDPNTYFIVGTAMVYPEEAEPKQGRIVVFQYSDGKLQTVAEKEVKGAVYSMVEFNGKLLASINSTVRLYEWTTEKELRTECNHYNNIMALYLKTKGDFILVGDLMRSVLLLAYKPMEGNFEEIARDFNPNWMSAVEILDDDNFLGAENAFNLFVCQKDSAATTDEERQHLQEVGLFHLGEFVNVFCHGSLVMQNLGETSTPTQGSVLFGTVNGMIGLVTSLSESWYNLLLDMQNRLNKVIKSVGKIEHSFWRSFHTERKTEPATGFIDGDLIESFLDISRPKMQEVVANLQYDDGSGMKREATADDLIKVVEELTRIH
binder,measurement,value
"NITRDLIRRQIKE (peptide, UniProt Q8N5D0 5-17, looked up) [DCAF9 peptide (amino acids 5 to 17 of DCAF9/WDTC1)]",binding result,binds
